Test results published in PMC3031960 (Journal of immunology (Baltimore, Md. : 1950), 2010).
Numbered stars: 1 amine (or outer) side, 2 acyl side, 3 side chain; on linkers, the order of the positions; unused ones are H or OH. Square brackets hold non-standard residues; d marks the D form. Ends that are not written are not given here. K(Palm) = CCCCCCCCCCCCCCCC(=O)NCCCC[C@H](N[*:1])C(=O)[*:2]; pY = N[C@@H](Cc1ccc(OP(=O)(O)O)cc1)C(=O)O

B1: SOCS1-KIR (peptide)
peptide: {K(Palm)}-DTHFRTFRSHSDYRRI
B2: SOCS3-KIR (peptide)
peptide: {K(Palm)}-LRLKTFSSKSEYQLVV

Biological target: T1, pJAK2(1001–1013)
T1 peptide: {K(Palm)}-LPQDKE[pY]YKVKEP
Test: ELISA

Row | Binder | binding result
1 | B1 | binds
2 | B2 | binds
